Here are results for one protein from article PMC5372246, “Co-production of hydrogen and ethanol from glucose in Escherichia coli by activation of pentose-phosphate pathway through deletion of phosphoglucose isomerase (pgi) and overexpression of glucose-6-phosphate dehydrogenase (zwf) and 6-phosphogluconate dehydrogenase (gnd)” (Biotechnology for Biofuels, 2017).

Substrate in this series: NC(=O)c1ccc[n+]([C@@H]2O[C@H](COP(=O)(O)OP(=O)(O)OC[C@H]3O[C@@H](n4cnc5c(N)ncnc54)[C@H](OP(=O)(O)O)[C@@H]3O)[C@@H](O)[C@H]2O)c1
Put plainly: purified protein. The series is classed as biochemical, Escherichia coli. The settings on record: co-substrate 6-phosphogluconate, general assay: Tris-HCl pH 7.5, 1 mM MgCl2, 30 °C.

B1: Gnd (GE), 6-phosphogluconate dehydrogenase (Escherichia coli K-12) (protein)
chain: MSKQQIGVVGMAVMGRNLALNIESRGYTVSIFNRSREKTEEVIAENPGKKLVPYYTVKEFVESLETPRRILLMVKAGAGTDAAIDSLKPYLDKGDIIIDGGNTFFQDTIRRNRELSAEGFNFIGTGVSGGEEGALKGPSIMPGGQKEAYELVAPILTKIAAVAEDGEPCVTYIGADGAGHYVKMVHNGIEYGDMQLIAEAYSLLKGGLNLTNEELAQTFTEWNNGELSSYLIDITKDIFTKKDEDGNYLVDVILDEAANKGTGKWTSQSALDLGEPLSLITESVFARYISSLKDQRVAASKVLSGPQAQPAGDKAEFIEKVRRALYLGKIVSYAQGFSQLRAASEEYNWDLNYGEIAKIFRAGCIIRAQFLQKITDAYAENPQIANLLLAPYFKQIADDYQQALRDVVAYAVQNGIPVPTFSAAVAYYDSYRAAVLPANLIQAQRDYFGAHTYKRIDKEGVFHTEWLD
notes: full-length, C-terminal His-tag, Ni-NTA purified from E. coli, 51 kDa on SDS-PAGE
By Km is commonly meant the substrate concentration at which the rate is half of its maximum. As for B1, the Km is 40 µM.
